# Reference: patent US20200199202A1 (published 2020)
# T1: soluble human NPC1 domain C protein (UniProt O15118 372-622)
# T1 chain: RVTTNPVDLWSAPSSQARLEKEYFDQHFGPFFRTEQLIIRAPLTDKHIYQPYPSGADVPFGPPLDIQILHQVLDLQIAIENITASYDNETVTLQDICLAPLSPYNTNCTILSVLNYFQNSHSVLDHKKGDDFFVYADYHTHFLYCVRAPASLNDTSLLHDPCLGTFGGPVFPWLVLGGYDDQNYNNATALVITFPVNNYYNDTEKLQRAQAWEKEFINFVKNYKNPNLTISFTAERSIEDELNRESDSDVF
# B1: 548 (antibody, V domains shown)
# VH: EVQLQQSGAELVKPGASVKLSCTASGFNIKDTYMHWVKQRPEEGLEWIGRIDPADGNTEYVPKFQGKATITADTFSNTVYLQLSGLTSEDTAVYYCSRGYYWGQGTTLTVSS
# VL: DIQMTQSPASLSASVGETVTITCRASENIYSYLAWYQQKQGKSPQLLVYNAKTLAEGVPSRFSGSGSGTQFSLKINSLQPEDFGIYYCQHHYGSPWAFGGGTKLEIK
# B2: mAb 548 (anti-human NPC1 domain C monoclonal antibody) (antibody, V domains shown)
# VH: B1 VH
# VL: B1 VL
# Columns and labels:
# NHP NPC1-C = NHP NPC1-C (Colobus guereza); assay: BLI; pH 5.5
# [1] = target: T1, soluble human NPC1 domain C protein; assay: BLI; pH 7.5
# [2] = target: T1, soluble human NPC1 domain C protein; assay: BLI; pH 5.5
# [3] = target: T1, soluble human NPC1 domain C protein; assay: BLI; pH 7.5
Binder,Kd (NHP NPC1-C) [pM],Kd [1] [pM],Kd [2] [pM],Kd [3] [pM]
B1,< 1,,,
B2,,< 1,< 1,< 1
